# T1: sIL-6R (soluble IL-6 receptor; SBH Sciences) (human, UniProt P08887 20-365)
# T1 construct: also called human IL-6R
# T1 sequence: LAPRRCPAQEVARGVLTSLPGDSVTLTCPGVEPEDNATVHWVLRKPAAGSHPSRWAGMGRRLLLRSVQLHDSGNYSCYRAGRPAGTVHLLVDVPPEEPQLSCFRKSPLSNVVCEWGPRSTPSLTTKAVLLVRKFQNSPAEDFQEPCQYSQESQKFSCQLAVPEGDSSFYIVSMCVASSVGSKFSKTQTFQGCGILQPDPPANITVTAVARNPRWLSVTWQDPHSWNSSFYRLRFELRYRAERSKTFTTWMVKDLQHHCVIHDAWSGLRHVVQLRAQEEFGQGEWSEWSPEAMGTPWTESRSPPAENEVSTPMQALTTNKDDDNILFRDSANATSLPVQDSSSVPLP
# Target: T1, sIL-6R (soluble IL-6 receptor; SBH …)
# Experiment: SPR (BIAcore 3000), antibody on chip, sIL-6R analyte, 25 C
# Protocol: All SPR measurements were performed on a BIAcore 3000 instrument (GE Biosciences, Piscataway, N.J.). BIAcore Software-BIAcore 3000 Control Software V3.2 was used for the operation and control of the BIAcore 3000 instrument. BiaEvaluation Software V4.1 was used for the analysis of SPR data from the BIAcore 3000 instrument and data was plotted using Graph Pad Prism Software Version 5. […] The indicated antibodies were used as the ligand for the construction of the reference channel of the chip. […] Each sample was injected for 3 min at a flow rate of 30 μL/min to allow for binding to chip-bound antibody. Next, binding buffer without analyte was sent over the chip at the same flow rate to allow for dissociation of bound analyte. After 500s, remaining bound analyte was removed by injecting regeneration solution (1M Formic acid). Data was analyzed by using the Kinetics Wizard and the manual fitting programs that are both included with the BiaEvaluation Software V4.1.
Binder,Kd [nM],Relative Affinity,koff [s⁻¹],kon [M⁻¹ s⁻¹]
"52# (antibody, human IgG1, kappa, V domains shown, also called Sample # 52) VH: QVQLQESGPGLVRPSQTLSLTCTVSGYSITSDHAWSWVRQPPGRGLEWIGYISYSGITTYNPSLKSRVTMLRDTSKNQFSLRLSSVTAADTAVYYCARSLARTTAIDFWGQGSLVTVSS VL: DIQMTQSPSSLSASVGDRVTITCRASQDISSYLNWYQQKPGKAPKLLIYYTSRLHSGVPSRFSGSGSGTDFTFTISSLQPEDIATYYCQQGNTLPYTFGQGTKVEIKR",1.86,1.7 fold vs 25 (Tocilizumab),0.000199,107000
"219# (antibody, human IgG1, kappa, V domains shown) VH: QVQLQESGPGLVRPSQTLSLTCTVSGYSITSDHAWSWVRQPPGRGLEWIGYISYSGITTYNPSLKSRVTMLRDTSKNQFSLRLSSVTAADTAVYYCARCLARMTAIDFWGQGSLVTVSS VL: DIQMTQSPSSLSASVGDRVTITCRASQDISSYLNWYQQKPGKAPKLLIYYTSRLHSGVPSRFSGSGSGTDFTFTISSLQPEDIATYYCGQGNRLPYTFGQGTKVEIKR",0.491,6.4 fold vs 25 (Tocilizumab),5.96e-05,121000
"218# (antibody, human IgG1, kappa, V domains shown) VH: QVQLQESGPGLVRPSQTLSLTCTVSGYSITSDHAWSWVRQPPGRGLEWIGYISYSGMITYNPSLKSRVTMLRDTSKNQFSLRLSSVTAADTAVYYCARCLARMTAIDFWGQGSLVTVSS VL: DIQMTQSPSSLSASVGDRVTITCRASQDISSYLNWYQQKPGKAPKLLIYYTSRLHSGVPSRFSGSGSGTDFTFTISSLQPEDIATYYCQQGNTLPYTFGQGTKVEIKR",0.621,5.1 fold vs 25 (Tocilizumab),6.63e-05,107000
"216# (antibody, human IgG1, kappa, V domains shown, also called Sample # 216) VH: QVQLQESGPGLVRPSQTLSLTCTVSGYSITSDHAWSWVRQPPGRGLEWIGYISYSGMITYNPSLKSRVTMLRDTSKNQFSLRLSSVTAADTAVYYCARSLARTTAIDFWGQGSLVTVSS VL: DIQMTQSPSSLSASVGDRVTITCRASQDISSYLNWYQQKPGKAPKLLIYYTSRLHSGVPSRFSGSGSGTDFTFTISSLQPEDIATYYCQQGNTLPYTFGQGTKVEIKR",1.83,1.7 fold vs 25 (Tocilizumab),0.000266,145000
"220# (antibody, human IgG1, kappa, V domains shown, also called Sample # 220) VH: QVQLQESGPGLVRPSQTLSLTCTVSGYSITSDHAWSWVRQPPGRGLEWIGYISYSGMITYNPSLKSRVTMLRDTSKNQFSLRLSSVTAADTAVYYCARSLARMTAMDYWGQGSLVTVSS VL: DIQMTQSPSSLSASVGDRVTITCRASQDISSYLNWYQQKPGKAPKLLIYYTSRLHSGVPSRFSGSGSGTDFTFTISSLQPEDIATYYCGQGNRLPYTFGQGTKVEIKR",0.483,6.5 fold vs 25 (Tocilizumab),6.34e-05,131000
"214# (antibody, human IgG1, kappa, V domains shown) VH: QVQLQESGPGLVRPSQTLSLTCTVSGYSITSDHAWSWVRQPPGRGLEWIGYISYSGITTYNPSLKSRVTMLRDTSKNQFSLRLSSVTAADTAVYYCARCLARMTAIDFWGQGSLVTVSS VL: DIQMTQSPSSLSASVGDRVTITCRASQDISSYLNWYQQKPGKAPKLLIYYTSRLHSGVPSRFSGSGSGTDFTFTISSLQPEDIATYYCQQGNTLPYTFGQGTKVEIKR",0.369,8.7 fold vs 25 (Tocilizumab),4.69e-05,127000
"55# (antibody, human IgG1, kappa, V domains shown, also called Sample # 55) VH: QVQLQESGPGLVRPSQTLSLTCTVSGYSITSDHAWSWVRQPPGRGLEWIGFISYSGMITYNPSLKSRVTMLRDTSKNQFSLRLSSVTAADTAVYYCARCLARTTAMDYWGQGSLVTVSS VL: DIQMTQSPSSLSASVGDRVTITCRASQDISSYLNWYQQKPGKAPKLLIYYTSRLHSGVPSRFSGSGSGTDFTFTISSLQPEDIATYYCQQGNTLPYTFGQGTKVEIKR",0.387,8.2 fold vs 25 (Tocilizumab),7.24e-05,187000
"69# (antibody, human IgG1, kappa, V domains shown, also called Sample # 69) VH: QVQLQESGPGLVRPSQTLSLTCTVSGYSITSDHAWSWVRQPPGRGLEWIGFISYSGMTTYNPSLKSRVTMLRDTSKNQFSLRLSSVTAADTAVYYCARCLARTTAIDFWGQGSLVTVSS VL: DIQMTQSPSSLSASVGDRVTITCRASQDISSYLNWYQQKPGKAPKLLIYYTSRLHSGVPSRFSGSGSGTDFTFTISSLQPEDIATYYCQQGNTLPYTFGQGTKVEIKR",0.286,11 fold vs 25 (Tocilizumab),4.14e-05,145000
"217# (antibody, human IgG1, kappa, V domains shown, also called Sample # 217) VH: QVQLQESGPGLVRPSQTLSLTCTVSGYSITSDHAWSWVRQPPGRGLEWIGYISYSGMITYNPSLKSRVTMLRDTSKNQFSLRLSSVTAADTAVYYCARCLARMTAMDYWGQGSLVTVSS VL: DIQMTQSPSSLSASVGDRVTITCRASQDISSYLNWYQQKPGKAPKLLIYYTSRLHSGVPSRFSGSGSGTDFTFTISSLQPEDIATYYCQQGNTLPYTFGQGTKVEIKR",0.581,5.4 fold vs 25 (Tocilizumab),0.000109,188000
"59# (antibody, human IgG1, kappa, V domains shown, also called Sample # 59) VH: QVQLQESGPGLVRPSQTLSLTCTVSGYSITSDHAWSWVRQPPGRGLEWIGFISYSGMTTYNPSLKSRVTMLRDTSKNQFSLRLSSVTAADTAVYYCARCLARTTAMDYWGQGSLVTVSS VL: DIQMTQSPSSLSASVGDRVTITCRASQDISSYLNWYQQKPGKAPKLLIYYTSRLHSGVPSRFSGSGSGTDFTFTISSLQPEDIATYYCQQGNTLPYTFGQGTKVEIKR",0.283,11.2 fold vs 25 (Tocilizumab),4.86e-05,172000
"215# (antibody, human IgG1, kappa, V domains shown) VH: QVQLQESGPGLVRPSQTLSLTCTVSGYSITSDHAWSWVRQPPGRGLEWIGYISYSGMITYNPSLKSRVTMLRDTSKNQFSLRLSSVTAADTAVYYCARSLARMTAMDYWGQGSLVTVSS VL: DIQMTQSPSSLSASVGDRVTITCRASQDISSYLNWYQQKPGKAPKLLIYYTSRLHSGVPSRFSGSGSGTDFTFTISSLQPEDIATYYCQQGNTLPYTFGQGTKVEIKR",1.03,3.1 fold vs 25 (Tocilizumab),0.000161,157000

# The remaining lines, values ahead:
Kd [nM],Relative Affinity,koff [s⁻¹],kon [M⁻¹ s⁻¹],Binder
0.368,8.6 fold vs 25 (Tocilizumab),4.91e-05,133000,"223# (antibody, human IgG1, kappa, V domains shown, also called Sample # 223) VH: QVQLQESGPGLVRPSQTLSLTCTVSGYSITSDHAWSWVRQPPGRGLEWIGYISYSGMITYNPSLKSRVTMLRDTSKNQFSLRLSSVTAADTAVYYCARCLARMTAIDFWGQGSLVTVSS VL: DIQMTQSPSSLSASVGDRVTITCRASQDISSYLNWYQQKPGKAPKLLIYYTSRLHSGVPSRFSGSGSGTDFTFTISSLQPEDIATYYCGQGNRLPYTFGQGTKVEIKR"
0.5,6.3 fold vs 25 (Tocilizumab),7.99e-05,160000,"224# (antibody, human IgG1, kappa, V domains shown) VH: QVQLQESGPGLVRPSQTLSLTCTVSGYSITSDHAWSWVRQPPGRGLEWIGYISYSGMTTYNPSLKSRVTMLRDTSKNQFSLRLSSVTAADTAVYYCARCLARTTAMDYWGQGSLVTVSS VL: DIQMTQSPSSLSASVGDRVTITCRASQDISSYLNWYQQKPGKAPKLLIYYTSRLHSGVPSRFSGSGSGTDFTFTISSLQPEDIATYYCQQGNTLPYTFGQGTKVEIKR"
0.645,4.9 fold vs 25 (Tocilizumab),0.000105,163000,"225# (antibody, human IgG1, kappa, V domains shown) VH: QVQLQESGPGLVRPSQTLSLTCTVSGYSITSDHAWSWVRQPPGRGLEWIGYISYSGMITYNPSLKSRVTMLRDTSKNQFSLRLSSVTAADTAVYYCARCLARTTAMDYWGQGSLVTVSS VL: DIQMTQSPSSLSASVGDRVTITCRASQDISSYLNWYQQKPGKAPKLLIYYTSRLHSGVPSRFSGSGSGTDFTFTISSLQPEDIATYYCQQGNTLPYTFGQGTKVEIKR"
0.663,4.8 fold vs 25 (Tocilizumab),9.01e-05,136000,"221# (antibody, human IgG1, kappa, V domains shown) VH: QVQLQESGPGLVRPSQTLSLTCTVSGYSITSDHAWSWVRQPPGRGLEWIGYISYSGMITYNPSLKSRVTMLRDTSKNQFSLRLSSVTAADTAVYYCARSLARTTAIDFWGQGSLVTVSS VL: DIQMTQSPSSLSASVGDRVTITCRASQDISSYLNWYQQKPGKAPKLLIYYTSRLHSGVPSRFSGSGSGTDFTFTISSLQPEDIATYYCGQGNRLPYTFGQGTKVEIKR"
0.286,11 fold vs 25 (Tocilizumab),3.66e-05,128000,"222# (antibody, human IgG1, kappa, V domains shown, also called Sample # 222) VH: QVQLQESGPGLVRPSQTLSLTCTVSGYSITSDHAWSWVRQPPGRGLEWIGYISYSGMITYNPSLKSRVTMLRDTSKNQFSLRLSSVTAADTAVYYCARCLARMTAMDYWGQGSLVTVSS VL: DIQMTQSPSSLSASVGDRVTITCRASQDISSYLNWYQQKPGKAPKLLIYYTSRLHSGVPSRFSGSGSGTDFTFTISSLQPEDIATYYCGQGNRLPYTFGQGTKVEIKR"
0.102,31 fold vs 25 (Tocilizumab),1.6e-05,156000,"226# (antibody, human IgG1, kappa, V domains shown) VH: QVQLQESGPGLVRPSQTLSLTCTVSGYSITSDHAWSWVRQPPGRGLEWIGYISYSGMITYNPSLKSRVTMLRDTSKNQFSLRLSSVTAADTAVYYCARCLARATAMDYWGQGSLVTVSS VL: DIQMTQSPSSLSASVGDRVTITCRASQDISSYLNWYQQKPGKAPKLLIYYTSRLHSGVPSRFSGSGSGTDFTFTISSLQPEDIATYYCQQGNTLPYTFGQGTKVEIKR"

# — US20190315854A1 (BEIJING VDJBIO, published 2019)
